From patent US20210269525A1
Blank lines part the entries; values can stand above or below the substance they belong to.

Assays:
[1] = target: monkey CD3e (Macaca fascicularis) on PBMC (Macaca fascicularis) (UniProt Q95LI5); assay: flow cytometry, Macaca fascicularis PBMC, control sample (Table 2: 1:400), AF647-anti-hIgG
[2] = target: monkey CD3e (Macaca fascicularis) on PBMC (Macaca fascicularis) (UniProt Q95LI5); assay: flow cytometry, Macaca fascicularis PBMC, control sample (Table 2: 1:400), AF647-anti-mIgG
[3] = target: human CD3e (T-cell surface glycoprotein CD3 epsilon chain) (human) (UniProt P07766); assay: flow cytometry, human PBMC of subject 1 (PBMC human1#), negative control, AF647-anti-mIgG, PerCP anti-hTcRβ
[4] = target: human CD3e (T-cell surface glycoprotein CD3 epsilon chain) (human) (UniProt P07766); assay: flow cytometry, human PBMC of subject 2 (PBMC human2#), negative control, AF647-anti-mIgG, PerCP anti-hTcRβ
[5] = target: human CD3e (T-cell surface glycoprotein CD3 epsilon chain) (human) (UniProt P07766); assay: flow cytometry, human PBMC, negative control of unstated make-up
[6] = target: monkey CD3e (Macaca fascicularis) on PBMC (Macaca fascicularis) (UniProt Q95LI5); assay: flow cytometry, Macaca fascicularis PBMC, negative control of unstated make-up

monkey CD3e (Macaca fascicularis) on PBMC (Macaca fascicularis), sequence (Q95LI5 22-198 limits assumed): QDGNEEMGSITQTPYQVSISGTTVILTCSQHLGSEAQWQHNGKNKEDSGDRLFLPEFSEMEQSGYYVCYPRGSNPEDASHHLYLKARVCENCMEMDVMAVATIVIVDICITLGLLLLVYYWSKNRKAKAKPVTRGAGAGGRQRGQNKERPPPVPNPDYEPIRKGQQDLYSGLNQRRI

FL4-H, SSC-H subset (percent of cells in the AF647-positive gate) [1]: 3.27%
Substance: hIgG (antibody)

FL4-H, SSC-H subset (percent of cells in the AF647-positive gate) [2]: 0.58%
Q1, percent of cells AF647+ / hTcRβ-PerCP- [3]: 0.00361%
Q2, percent of cells AF647+ / hTcRβ-PerCP+ [3]: 0.19%
Q1, percent of cells AF647+ / hTcRβ-PerCP- [4]: 0.0036%
Q2, percent of cells AF647+ / hTcRβ-PerCP+ [4]: 0.21%
Substance: mIgG (antibody)

upper left quadrant, percent of cells AF647+ / hTcRβ-PerCP- [5]: 0.24%
upper left quadrant, percent of cells AF647+ / hTcRβ-PerCP- [6]: 0.162%
Substance: NC
